From paper PMC10397247

Assays:
[1] = target: T1, 4H3926-bN; assay: two-hybrid library CCNG1;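 note: natural log of median RNA to DNA barcode read ratio; higher means stronger binding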
T1 chain: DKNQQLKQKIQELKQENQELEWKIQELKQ

[2] = target: T2, 4H591-bN; assay: two-hybrid library CCNG1;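 note: natural log of median RNA to DNA barcode read ratio; higher means stronger binding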
T2 chain: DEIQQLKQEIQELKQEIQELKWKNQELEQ

[3] = target: T3, 4H3613-bN; assay: two-hybrid library CCNG1;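 note: natural log of median RNA to DNA barcode read ratio; higher means stronger binding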
T3 chain: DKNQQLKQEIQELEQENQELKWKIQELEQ

[4] = target: T4, 4H3277-bN; assay: two-hybrid library CCNG1;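 note: natural log of median RNA to DNA barcode read ratio; higher means stronger binding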
T4 chain: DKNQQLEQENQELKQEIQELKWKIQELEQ

[5] = target: T5, 4H3298-bN; assay: two-hybrid library CCNG1;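 note: natural log of median RNA to DNA barcode read ratio; higher means stronger binding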
T5 chain: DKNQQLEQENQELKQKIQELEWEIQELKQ

[6] = target: T6, O8-bN; assay: two-hybrid library CCNG1;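 note: natural log of median RNA to DNA barcode read ratio; higher means stronger binding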
T6 chain: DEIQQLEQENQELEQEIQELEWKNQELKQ

[7] = target: T7, 4H3497-bN; assay: two-hybrid library CCNG1
T7 chain: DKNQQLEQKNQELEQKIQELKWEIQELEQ

[8] = target: T8, 4H906-bN; assay: two-hybrid library CCNG1
T8 chain: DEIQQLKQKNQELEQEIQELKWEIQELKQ

[9] = target: T9, 4H3628-bN; assay: two-hybrid library CCNG1
T9 chain: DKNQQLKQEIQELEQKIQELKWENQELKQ

[10] = target: T10, 4H626-bN; assay: two-hybrid library CCNG1
T10 chain: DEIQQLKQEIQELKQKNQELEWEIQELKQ

[11] = target: T11, 4H3462-bN; assay: two-hybrid library CCNG1
T11 chain: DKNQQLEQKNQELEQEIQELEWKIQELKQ

[12] = target: T12, 4H3175-bN; assay: two-hybrid library CCNG1
T12 chain: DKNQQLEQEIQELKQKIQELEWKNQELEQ

[13] = target: T13, 4H3162-bN; assay: two-hybrid library CCNG1
T13 chain: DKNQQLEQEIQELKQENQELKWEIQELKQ

[14] = target: T14, 4H2673-bH; assay: two-hybrid library CCNG1
T14 chain: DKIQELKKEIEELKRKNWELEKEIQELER

[15] = target: T15, 4H797-bH; assay: two-hybrid library CCNG1
T15 chain: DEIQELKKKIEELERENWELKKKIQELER

[16] = target: T16, 4H918-bH; assay: two-hybrid library CCNG1
T16 chain: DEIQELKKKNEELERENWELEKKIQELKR

[17] = target: T17, 4H3926-bH; assay: two-hybrid library CCNG1
T17 chain: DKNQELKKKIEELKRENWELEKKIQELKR

[18] = target: T18, 4H780-bH; assay: two-hybrid library CCNG1
T18 chain: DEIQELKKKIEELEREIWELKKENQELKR

[19] = target: T19, 4H3112-bH; assay: two-hybrid library CCNG1
T19 chain: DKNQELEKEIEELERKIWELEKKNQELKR

[20] = target: T20, 4H683-bH; assay: two-hybrid library CCNG1
T20 chain: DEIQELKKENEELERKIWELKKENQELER

[21] = target: T21, 4H968-bH; assay: two-hybrid library CCNG1
T21 chain: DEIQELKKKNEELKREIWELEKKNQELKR

[22] = target: T22, 4H953-bH; assay: two-hybrid library CCNG1
T22 chain: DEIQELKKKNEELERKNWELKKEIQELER

[23] = target: T23, 4H855-bH; assay: two-hybrid library CCNG1
T23 chain: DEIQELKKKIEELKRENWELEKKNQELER

[24] = target: T24, 4H3427-bH; assay: two-hybrid library CCNG1
T24 chain: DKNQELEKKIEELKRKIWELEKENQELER

[25] = target: T25, 4H754-bH; assay: two-hybrid library CCNG1
T25 chain: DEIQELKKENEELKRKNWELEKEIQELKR

[26] = target: T26, 4H4073-bH; assay: two-hybrid library CCNG1
T26 chain: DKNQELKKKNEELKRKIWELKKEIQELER

[27] = target: T27, 4H575-bH; assay: two-hybrid library CCNG1
T27 chain: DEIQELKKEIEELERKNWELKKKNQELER

[28] = target: T28, 4H3010-bH; assay: two-hybrid library CCNG1
T28 chain: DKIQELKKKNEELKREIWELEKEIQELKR

[29] = target: T29, 4H2627-bH; assay: two-hybrid library CCNG1
T29 chain: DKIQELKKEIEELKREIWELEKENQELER

[30] = target: T30, 4H2702-bH; assay: two-hybrid library CCNG1
T30 chain: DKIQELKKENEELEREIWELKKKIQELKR

[31] = target: T31, 4H457-bH; assay: two-hybrid library CCNG1
T31 chain: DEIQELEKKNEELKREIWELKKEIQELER

[32] = target: T32, 4H346-bH; assay: two-hybrid library CCNG1
T32 chain: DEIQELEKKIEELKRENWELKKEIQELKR

[33] = target: T33, Q8-AA; assay: two-hybrid library CCmax
T33 chain: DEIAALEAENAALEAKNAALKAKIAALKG

[34] = target: T34, 4H4038-bA; assay: two-hybrid library CCNG1
T34 chain: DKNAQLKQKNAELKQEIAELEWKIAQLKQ

DKNQQLEQEIQELKQENQELKWEIQELKQ [4H3162-bN]
interaction score [1]: 0.163 | interaction score [2]: -1.33 | interaction score [3]: -1.7 | interaction score [4]: -0.514 | interaction score [5]: -0.102 | interaction score [6]: -3.16 | interaction score [7]: -0.903 | interaction score [8]: -0.289 | interaction score [9]: -0.668 | interaction score [10]: -1.41 | interaction score [11]: 0.241 | interaction score [12]: -0.427 | interaction score [13]: 0.979

DKIQELKKEIEELKREIWELEKENQELER [4H2627-bH]
interaction score [14]: 0.273 | interaction score [15]: -0.67 | interaction score [16]: -0.493 | interaction score [17]: -0.251 | interaction score [18]: -0.424 | interaction score [19]: -0.225 | interaction score [20]: 0.431 | interaction score [21]: 0.133 | interaction score [22]: -1.4 | interaction score [23]: -0.425 | interaction score [24]: 1.18 | interaction score [25]: -1.94 | interaction score [26]: 1.38 | interaction score [27]: -0.0013 | interaction score [28]: 0.547 | interaction score [29]: 1.3 | interaction score [30]: 0.512 | interaction score [31]: -1.91 | interaction score [32]: -0.309

DEIAALEAENAALEAKNAALKAKIAALKG [Q8-AA]
interaction score [33]: -1.19

DKNAQLKQKNAELKQEIAELEWKIAQLKQ [4H4038-bA]
interaction score [34]: -0.541
